# Measurements published in the DeepSol protein solubility set.
# Assay: soluble on expression in E. coli; label from the status in PepcDB or PDB records
row,Sequence,soluble on expression in E. coli
1,MGSDKIHHHHHHMYKHSIIPKPVSEYDLRLLRIFISVVEHGGFSSAANALGITRSTISVHMSNLETRMKLKLCLRGRGGFSLTEDGQAVYQAVLDLFATMDDFSLLIDSLGSELSGELIILCADQLDESKQHKMAQVIKKINDASPNLHLVLDGDSISNIEKALLKDKAHIALFPSYQQIEGLQYQPLFSESIYLCCGKQHPFFNQVDTAISEEILGQAAAIHPGINIDLAGKQQLEKLNLSAKSYQFDTRKAMILSGCYIGFMQQSFIQAELNRGEIRIIKPNSHHYQFRLSLVSKKTPREVKKVELLTNVFSQVFEL,not soluble
2,MGSDKIHHHHHHMYKRNERLNLIRKRVDQYGQVAVKDLAIFLQVTPETVRKDLETLENDKLITRTHGGAIQYNHINKEKSYANKWQKQSQVKERIAKKAALQIKSGEIIVIDGGTTTGRIPQYLNDITQTTIVTNSLKIADELNRAIEEQRIQAEVIMLAGKTNTEQDVVRGHMTNELLQRFKFDKAFISCGSFDTSDCYEFDLEEAHASHIMIQKSQLSYLLADSSKRDAHASYRIDGFSEIDYMISDYAKPQNIEYFNQKHWLQI,not soluble
3,MGSDKIHHHHHHMYLLDSTIAKKIVSRTMKIIGHNINVMNGQGVILGSGDPKRIGSTHEGALLAIAQNRNVELSDEVASGLHGVKPGINLPLHYQGQIIGVIGITGAPDELAHYGELLKMTAEMIVEQANQQDKLQWENRQREEFILQLIKANTDDEQLQRWAKQLDIDINLPRVAAIIEISEKLSAPIHKTASLINAAASESSVDERNPRVSETLKQVLHLLQNPDRGNLIAMTSMSQLVILKPAFLDGKQWDPELENQRIDKLLQRLPAQMGLHFKIALGHFFPEKGGIARSYQTAQETLNLGKQLNPEGTKYLFEDYSLQVLLSGLKHDWRGQALASPYQQLTQADKNGQLRKTLAAYITHFGDAQQCANALFIHRNTLRYRLDKIQQLTQTDIQSLHGLLSLYLGQLLDTSANPR,not soluble
4,MGSDKIHHHHHHMYLLVDVGNTHSVFSITEDGKTFRRWRLSTGVFQTEDELFSHLHPLLGDAMREIKGIGVASVVPTQNTVIERFSQKYFHISPIWVKAKNGCVKWNVKNPSEVGADRVANVVAFVKEYGKNGIIIDMGTATTVDLVVNGSYEGGAILPGFFMMVHSLFRGTAKLPLVEVKPADFVVGKDTEENIRLGVVNGSVYALEGIIGRIKEVYGDLPVVLTGGQSKIVKDMIKHEIFDEDLTIKGVYHFCFGD,not soluble
5,MGSDKIHHHHHHMYNVGGVVLKRYFVAPGRINVIGEHTDYNEGFVLPVAIDKYVLLSVEKTSGSKISLSSMGREPVSFDESKIQKTGDWSDYLKGVLWVLKDELGTEFGGMSIEINSNLPEGAGLSSSAAVEVAMIVALNSSFNLKLDETELYDYARKAENEFVGVKCGVMDQFAAVMGKKDKAIFLDTLEMRYEYVPLELGDYTFLVFDSKVHHSLSKGGYNTRREEARKALEILGKSSYRDVSMVDLFPNRSRLGELYYRRALHVVSENMRVLESVKIMSNSNFENLGRLLIQSHESLALDYEVSCDETDFIVNTLREMKGVSGARMIGAGFGGSVLSLCEKEEEKKIVEVIKTRYKERFGIDLDSYEVRTSDGAREVDSSFSL,not soluble
6,MGSDKIHHHHHHMYQPGIVFLFSGHKIGYINERTFRYDTNEYLLLTVPLPFECETFATPEVPLAGMRLNVDILQLQELLMDIGEDPLFQPAVASSGINSAVLSEDILCAAERLLDVMERPLDARILGKQIVREILYYVLTGPCGGALLALVSRQTHFSLISRVLKHIESQYTENLSVDRLAAEANMSVSAFHHNFKAVTSTSPLQYLKNYRLHKARMLMIHDGMKASAAAMRVGYESPSQFSREFKRYFGLTPGEDAARIRTMQGM,not soluble
7,MGSDKIHHHHHHMYSHPTAIQTMSDGTIKQVNPFSGTEVWTVPGRGHRPLSTSQGNITPITPSDHSNTCAFCSDRYLDTPPEKARIVRDDDGWTILRGVLPDRLHDSVPAFRRVSNLFEIVSYDYWRNNYGFSMDLETTDWMQSYISTEKGREHVLATVRTKLQAAGIQDMPDDATLLPQGEAFFGGGHDLIIGQRHFVPDATQSDQLASAGTLSPDEHFAFIFFTVDALREAYQRNRYAPYVAVFQNWLKPAGASFDHLHKQLVAIDERGVHGETEIAKLRNYPNMYNEWAVDYAGQRNLIIAENDHAVCFAGFGHRYPTLEVFSRSATPEPWLQTNEEIKAMSDLIHACHAAAGPHVPCNEEWHHKPIDLDIAMPWRVMIKWRVSTLAGFEGSTKVYLNTLSPWDVRDRVVPRLYELRDSGAIDGSIRIATECSVRRNSLLYNKNLNM,not soluble
8,MGSDKIHHHHHHMYSYNQLRRVTFNQLGRIAYNSRSSPRRRAVFERLAGARPVVLTQERERLAVLDHANDIILEQEINGIDTVTFNIPFSDEKNQFIQNEHLIQIIDDYYIIRKITHSRGSQGVPITEVYAEALWYDLQFAEPMDISEWEGRAPAIVMADILRGTDWSVGRVELMNVRNVSVEPGVTNRLAALSQLPEVYGGELHFNSEAMTVDFLAPVGRQSGAAIVYEKNIHSIEAIYDTEDLITRIYPYGKENLSIEDINDGVPYLDIRDDPSYEFTDKLRVRILKDDRFTNPFHLREMAEEALKVLSQPRTSYHIKAADLSEMAGMSHEQFFLGDEVRVYDKELGIDIATRIMAWQYNVAEPWNTEIMLESKQPTLSDLLTGIQEGTGFLQSEDTVDSSDMLELSVFNHILNSRADDGFHYWTNSGWEIDAVNGYSGNASFKATGTTGRKVLSQTVYPAHRDHYAISFRSATKEFQTNDGGRVGLEIIVRYDDGTEDEPTFISLT,not soluble
9,MGSDKIHHHHHHMYVAVKGGEQAILNTHKLISETRRGDPEIAELTLPQISEQLGLAVDRVMAEGSVYDRQLAALALKQAQGDAMEAIFLLRAYRTTLPRIAVSEPIDTSRMAIRRRISATFKDLPGGQVLGPTYDYTHRLLDFALTAEGLERVRAVPAAEPLDQSVPRVVDLLDDEGVIQEENDDDQEEVFDLTRQPKSFPAGRDQRLQNLARADEGFLLGLAYSTTRGYGFNHPFVGELRLGEVTVEIVPEELGFPIVVAEVTVTECQMINSFRGSAEQPPQFTRGYGLTFGHNEGKAMSMSLVDRAMRARELGEDVRYPAQDEEFVLSHTDNVEANGLVTHYKLPHYVDFQAELQLVRQLRAEYEAARAAAQTREAAE,not soluble
10,MGSDKIHHHHHHQPPFPAPPAVRDIDCLEQDLMVYARALPQPDAPLLTLQDQERQTGFFLRRFFAAWDMRAPSMPRHTMFADLRATLDGKGWGANLLPVPPARTESLWQRCRTGEYPSLAVPAIITGNTSLRMAPDDEPFFRDPARAGEGYPFDYFQYSALWAGMPVFVVHASSDGGWLLCETPLAAGWVRARDVAYVDSGFMNAYRTGMYAAVVADDTPLRTAEGRWVLTAHTGAVFPVDKADAAGLVLRVPVRGADGGAGIRLVHVSYGAAARMPLPLTPVAVAMVGNGMMRQPYGWGGLLENRDCSAAMHDLFAPFGIWLPRNSSQQARAGALVSLEEMTPPQREAHILEQGVPFFSFIWMRGHIGLYLGPDRQDCAAGKPLMFHNVWGIRTGGGRAPEGRLVIGRAVVTTLHAGEEYPQVRKNWMLDRIRGLTLLPPQVP,not soluble
11,MGSDKIHHHHHHSCGTNGSKTTSTDITEKKVIVQVPQFDADSAYKYIQAQVDFGPRTPNSKGHVACGDYLAAKLAEHGAKVISQNAELPAYDGTLLKARNIIGSFKPESKKRIALFAHWDTRPWADNDPNEKNHHTPILGANDGASGVGVLLEIARQINQQQPELGIDIIFLDAEDYGAPQFYTGEHREDQWCLGAQYWARTPHVDGYNARFGILLDMVGGKDATFFKEVYSEKYAKGINKKVWKKANDAGYGRYFINEVGGQITDDHLFINRLAGIPTIDIIPNDENCELSSFGPTWHTVNDNMDAIDRSTLKAVGQTVLEVIYNEK,not soluble
12,MGSDKIHHHHHHTEGWFMPFDNWLYQLQNADPVEISSSGFEIAVIDYSKDGSESGEYSPEEIKIMVDAGVVPVAYVNIGQAEDYRFYWKESWYTNTPEWLGEEDPAWPGNYFVKYWYNEWKEIVFSYLDRVIDQGFKGIYLDRIDSFEYWAQEGVISRRSAARKMINFVLEIAEYVRERKPDMLIIPQNGENILDFDDGQLASTVSGWAVENLFYLKTIPLEENETKSRLEYLIRLNRKGKFILSVDYVDDGSDSFENISRILDYYEKAKRNGCIPYAARSDLELDEMNVIEGIQPPEALKDYESRTYR,soluble
13,MGSDKIHHHHHHTGIWQWSVPVHNFSTHPKNPESRAYLWIPGQCEQVKAILVAQHNMEEISILEDEAFRQRMAELDVAQIWVCPSFNHGFDFTDGAWETLDGLLADLAEESGYKELSTAPLIAIGHSAAASWPYYLAAYKPERTLACISVSGQWPYHRDRWLCPDIWGERNINKIPCLETMGEYESAHTWSNEGLKERKEHPLLPLSMLACPAEGHFAYTPEKAQYIALYIKKAMHYGHVDPTKEGWLMERWKKNEKPSCIPAPVNQFKGDPAQAFWFFDREMIEATLAYQSRYYDMKPQLVSVSQNGKTVSQQNTHLQVHPAFIPQEDGITFQLTPVFLDTVPGESPRLSNWTDLPVGASIGHAGKAPVLQMITGPVVLVDSVTFRIQWNRGTLWTDKKSDIVFSITHPGDEEYKPAVQQAQMIIPVKNTEGQQQYIKFATLPDIKRGTKYVSLSAVSSCGLPVDFYVESGPAYVDGNRLILTAIPPKTTYPVKVTVIAWQYGKNSDPKIKTAEPVKQTFYIR,not soluble
14,MGSDKIHHHHHHVARLVASVDKYIYTVNGDTILSHQFISNNAQFGNGIEVSQDNHFPWSGEIHYEINNPNQLAFKLGIRIPSWSRNKFGLKINGKKIDLASEDGFIYINVNDESLTVDLSLDMNTKFMRSSNKVSSNYGKIAVQRGPIVYAAEETDNKAPLWNYKVETDKEPKYHYNKDLLEGVGTITVKSIAEEISPEDGPLYSTIDEATANYETDLKLIPYYAWANREEGQMQVWLNK,not soluble
15,MGSDKIHHHHHHVDWNWNGDIRFRYDSSKTELASSPDKPADDRYRLRARFGVSPTINDELSAGLRLATGDGKNPTSTNQTLGKDFADKAIWLDEAYINYHPKALEGKVNVLLGKRDIAKTFNVVKDLVWDSDVTIEGATLQYGKDVSGKQKSGPSLIAGYYTLENYATASDPCIFAVQGAYMGTVSGADFNLGASYFDYVHMKNVAWWNSPNGPANDGKDFRILEVFGTLGGKLGGSLPATLYAQYAHNTALNSDNNAVLAGLKLGSDKKPGGWTLDGGYFYIEKYAVTPLTDGDRPMSSKYSTDIKGLKIGATYQLVQNMTLGATYFHVNPVDSSLTGSTSDHKNLVQADVAVNF,not soluble
16,MGSDKIHHHHHHVFDALVIGSGPAGLAIAAELAQRGLKVQGLSPVDPFHPWENTYGIWGPELDSLGLEHLFGHRWSNCVSYFGEAPVQHQYNYGLFDRAQLQQHWLRQCEQGGLQWQLGKAAAIAHDSHHSCVTTAAGQELQARLVVDTTGHQAAFIQRPHSDAIAYQAAYGIIGQFSQPPIEPHQFVLMDYRSDHLSPEERQLPPTFLYAMDLGNDVYFVEETSLAACPAIPYDRLKQRLYQRLATRGVTVQVIQHEEYCLFPMNLPLPDLTQSVVGFGGAASMVHPASGYMVGALLRRAPDLANAIAAGLNASSSLTTAELATQAWRGLWPTEKIRKHYIYQFGLEKLMRFSEAQLNHHFQTFFGLPKEQWYGFLTNTLSLPELIQAMLRLFAQAPNDVRWGLMEQQGRELQLFWQAIAAR,not soluble
17,MGSDKIHHHHHHVNGLPLVELSGDAYTQGWQHGRALREAIAANLRIYMTRFERELRIPPDEVWRRALRYAAVIAEQNQDYAAGMRGIAEGAGVDLAAIAALNVRYELFYQFFREYERGTGKPDGCTAFALLPSETDNGHLLVGENWDWIQGVRGAILRTIAPDGLRTLAFTEAGIFGGKIGLNAAGLALLINGLSSTGDDWASLRRPFHVRCYEILQARSLTEAQAVITSEERAGSANFLLAQVPDRVVNIEAAPAALAISGCTNGCLVHANHFTDPAALGIVERQIERYPHSYWRQERLRSLLASRPQSLAQVQAALRDHEQFPYSVCFHIDPADPPDEYYETVASVIMDVTAGVLYATDGPPCEHAYVRYELEVAR,not soluble
